Entries after “also recorded” stand apart in the source; their conditions may differ.

Series [1] is described as follows: Half-life of recombinant sKL in the circulation of rats. The series is classed as in vivo, rat. To be noted: tail vein injection 100 μg/kg. Here is the method: To determine the half-life of recombinant sKL protein in the circulation, rats were injected with the Strep-tagged mouse sKL that was purified as described above. Each group consisted of 3 male Sprague Dawley rats (9 weeks of age and weighing approximately 300 g). For injections and bleeding, rats were anesthetized with 2.5% isoflurane. For injections, a shielded i.v. catheter (BD Insyte Autoguard 0.7×19 mm, catalog no. 381412) was inserted into the lateral tail vein and flushed with 100 μl of isotonic saline (0.9%). One milliliter of purified sKL protein dissolved in isotonic saline (100 μg/kg) or isotonic saline was then injected, and the catheter was flushed again with 100 μl of isotonic saline. For bleeding, a shielded i.v. catheter was inserted into the lateral tail vein. Blood samples (300 μl) were taken after 1, 3, 5, 10, 15, 30, and 60 minutes as well as 3, 6, 12, and 48 hours. For collections from 15 minutes to 48 hours postinjection, a separate i.v. catheter was inserted each time to draw blood. For collections from 1 to 15 minutes post-sKL injection, the same i.v. catheter was used, and to exclude contamination with the previous draw, the catheter was flushed with isotonic saline between each sample. […] Serum was then aliquoted and stored at approximately […] before analysis. For the sKL activity assay, wells were coated with 500 ng of mouse FGF23 in 100 μl of coating buffer (E107, Bethyl Laboratories) at 4° C. overnight. Plates were washed 5× at 350 μl of assay buffer (50 mM Tris, [pH 7.4] 200 mM NaCl, 0.01% Tween 20) on a 50 TS microplate washer (BioTek). Plates were blocked for 1 hour in 200 μl of assay buffer with 0.5% BSA. Plates were washed and incubated with 30 μl per well and 70 μl of assay buffer with 0.5% BSA. Standards were run at noted concentrations by using purified Strep-tagged mouse sKL protein with 30 μl of control serum and 70 μl of assay buffer with 0.5% BSA added to ensure consistency. All samples and standards were run in triplicates. After 1 hour, plates were washed, and 150 ng of Fc-FGFR1c were incubated on plates in 100 μl of assay buffer with 0.5% BSA. After 1 hour, plates were washed and incubated with anti-human Fc-HRP at 1:10,000. Plates were washed as above and 100 μl of TMB substrate (E102, Bethyl Laboratories) was added for 15 to 20 minutes until positive wells developed a dark blue color. Reactions were stopped with ELISA stop solution (E115, Bethyl Laboratories) and analyzed using the Synergy HI plate reader (BioTek) at 450 nm wavelength. Amounts of sKL were calculated by taking the slope of the standard curve and calculating where the sample points fit in.

The next series has as its target T1, FGF2 binding to FGFR1c (Homo sapiens, UniProt P11362).
T1 construct: a chimeric protein consisting of the FGFR1 ectodomain and the Fc region of a human IgG; purchased R&D Systems 233-FB/CF; 658FR050
T1 sequence (P11362 22-376 limits assumed): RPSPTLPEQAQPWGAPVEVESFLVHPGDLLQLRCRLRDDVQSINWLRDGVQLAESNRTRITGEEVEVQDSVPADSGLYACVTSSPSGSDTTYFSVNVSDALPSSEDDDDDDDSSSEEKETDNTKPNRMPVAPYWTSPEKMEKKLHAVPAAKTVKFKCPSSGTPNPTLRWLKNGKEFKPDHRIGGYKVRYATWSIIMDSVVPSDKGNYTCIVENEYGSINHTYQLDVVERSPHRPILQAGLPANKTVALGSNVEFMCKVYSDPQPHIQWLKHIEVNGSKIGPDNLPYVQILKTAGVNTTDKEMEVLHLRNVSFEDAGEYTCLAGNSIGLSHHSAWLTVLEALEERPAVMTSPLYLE
The series can be described thus: Plate-based binding of paracrine FGF to Fc-FGFR1c with heparin and/or sKL. To be noted: Fc-FGFR1c preincubated with FLAG-sKL, absence and presence of heparin. Here is the method:
Proteins were coated on 96-well plates (MaxiSorp; 439454, Thermo Fisher Scientific), and proteins were added to wells in 100 μl of enzyme-linked immunosorbent assay (ELISA) coating buffer (E107, Bethyl Laboratories) with a lid placed overtop and incubated at 4° C. overnight. Plates were washed 5× with 350 μl of assay buffer (50 mM Tris [pH 7.4], 200 mM NaCl, 0.01% Tween 20) on a 50 TS microplate washer (BioTek). Plates were blocked for 1 hour in 200 μl of assay buffer with 0.5% BSA. Plates were washed as before, and proteins were incubated on plates in 100 μl of assay buffer with 0.5% BSA. Proteins or heparin was incubated in orders described in the respective figure legends. Assays using FLAG-tag-based detection were incubated with anti-FLAG coupled to HRP at 1:20,000, and assays using Fc detection were incubated with anti-human Fc coupled to HRP at 1:10,000. Plates were washed as above, and 100 μl of 3,3′,5,5′-tetramethylbenzidine (TMB) substrate (E102, Bethyl Laboratories) was added for 15 to 20 minutes until positive wells developed a dark blue color. Reactions were stopped with ELISA stop solution (E115, Bethyl Laboratories) and analyzed using the Synergy HI plate reader (BioTek) at 450 nm wavelength. […] As a control to remove background absorbance values, wells were coated with an equal amount of BSA to match the amount of protein coated in experimental wells and treated the same as experimental wells. To study the effects of sKL on the binding between paracrine FGFs and FGFRs, plates were run as above except coated with paracrine FGFs. Fc-FGFR1 was preincubated with sKL or vehicle for 60 minutes, and then the combination was added to wells and the assay was run as before.

B1: sKL: recombinant soluble α-klotho ectodomain, mouse aa 35-982 and human aa 34-981, FLAG- or Strep/His-tagged, purified from HEK293 cells (protein)
chain: EPGDGAQTWARFSRPPAPEAAGLFQGTFPDGFLWAVGSAAYQTEGGWQQHGKGASIWDTFTHHPLAPPGDSRNASLPLGAPSPLQPATGDVASDSYNNVFRDTEALRELGVTHYRFSISWARVLPNGSAGVPNREGLRYYRRLLERLRELGVQPVVTLYHWDLPQRLQDAYGGWANRALADHFRDYAELCFRHFGGQVKYWITIDNPYVVAWHGYATGRLAPGIRGSPRLGYLVAHNLLLAHAKVWHLYNTSFRPTQGGQVSIALSSHWINPRRMTDHSIKECQKSLDFVLGWFAKPVFIDGDYPESMKNNLSSILPDFTESEKKFIKGTADFFALCFGPTLSFQLLDPHMKFRQLESPNLRQLLSWIDLEFNHPQIFIVENGWFVSGTTKRDDAKYMYYLKKFIMETLKAIKLDGVDVIGYTAWSLMDGFEWHRGYSIRRGLFYVDFLSQDKMLLPKSSALFYQKLIEKNGFPPLPENQPLEGTFPCDFAWGVVDNYIQVDTTLSQFTDLNVYLWDVHHSKRLIKVDGVVTKKRKSYCVDFAAIQPQIALLQEMHVTHFRFSLDWALILPLGNQSQVNHTILQYYRCMASELVRVNITPVVALWQPMAPNQGLPRLLARQGAWENPYTALAFAEYARLCFQELGHHVKLWITMNEPYTRNMTYSAGHNLLKAHALAWHVYNEKFRHAQNGKISIALQADWIEPACPFSQKDKEVAERVLEFDIGWLAEPIFGSGDYPWVMRDWLNQRNNFLLPYFTEDEKKLIQGTFDFLALSHYTTILVDSEKEDPIKYNDYLEVQEMTDITWLNSPSQVAVVPWGLRKVLNWLKFKYGDLPMYIISNGIDDGLHAEDDQLRVYYMQNYINEALKAHILDGINLCGYFAYSFNDRTAPRFGLYRYAADQFEPKASMKHYRKIIDSNGFPGPETLERFCPEEFTVCTECSFFHTRKS
modifications: left off: small tags and cut ends
notes: recombinant soluble α-klotho ectodomain, mouse aa 35-982 and human aa 34-981, FLAG- or Strep/His-tagged, purified from HEK293 cells
Consider B1, for which the “time postinjection from which sKL could no longer be detected” value in series [1] is at least 3 h. For the same molecule, the “time post-injection after which sKL levels were reduced by about half” value in series [1] (earlier time points) is “approximately 10 minutes”. Further, the “half-life in the circulation” value in series [1] (serum, listed as recombinant sKL protein) is recorded as “approximately 10 minutes”. Besides, the “serum sKL level at the 15-minute time point” value in series [1] (versus vehicle) was “high levels of sKL were detected”. Also, the results for the “binding of FGFR1c to FGF2 in the presence of sKL” value with FGF2 binding to FGFR1c and with FGF2 binding to FGFR1c (listed as FLAG-sKL) were “reduced; also recorded: this effect did not occur in the presence of sKL” and “significantly reduced”, respectively.
